How the values were obtained:
[1] = target: T1, MAGE-B2 peptide on HLA-A*02:01 (human); experiment: multimer staining
T1 peptide: GVYDGEEHSV

[2] = target: T2, MAGE-B2 peptide, E7Y peptide on HLA-A*02:01 (human); experiment: killing
T2 peptide: GVYDGEYHSV

[3] = target: T3, MAGE-B2 peptide, E6V peptide on HLA-A*02:01 (human); experiment: killing
T3 peptide: GVYDGVEHSV

[4] = target: T4, MAGE-B2 peptide, S9N peptide on HLA-A*02:01 (human); experiment: killing
T4 peptide: GVYDGEEHNV

[5] = target: T5, MAGE-B2 peptide, V2M peptide on HLA-A*02:01 (human); experiment: killing
T5 peptide: GMYDGEEHSV

[6] = target: T6, MAGE-B2 peptide, E7M peptide on HLA-A*02:01 (human); experiment: killing
T6 peptide: GVYDGEMHSV

[7] = target: T7, MAGE-B2 peptide, D4N peptide on HLA-A*02:01 (human); experiment: killing
T7 peptide: GVYNGEEHSV

[8] = target: T8, MAGE-B2 peptide, E7P peptide on HLA-A*02:01 (human); experiment: killing
T8 peptide: GVYDGEPHSV

[9] = target: T9, MAGE-B2 peptide, S9P peptide on HLA-A*02:01 (human); experiment: killing
T9 peptide: GVYDGEEHPV

[10] = target: T10, MAGE-B2 peptide, S9W peptide on HLA-A*02:01 (human); experiment: killing
T10 peptide: GVYDGEEHWV

[11] = target: T11, MAGE-B2 peptide, H8N peptide on HLA-A*02:01 (human); experiment: killing
T11 peptide: GVYDGEENSV

[12] = target: T12, MAGE-B2 peptide, H8Y peptide on HLA-A*02:01 (human); experiment: killing
T12 peptide: GVYDGEEYSV

[13] = target: T13, MAGE-B2 peptide, Y3F peptide on HLA-A*02:01 (human); experiment: killing
T13 peptide: GVFDGEEHSV

[14] = target: T14, MAGE-B2 peptide, S9C peptide on HLA-A*02:01 (human); experiment: killing
T14 peptide: GVYDGEEHCV

[15] = target: T15, MAGE-B2 peptide, E7C peptide on HLA-A*02:01 (human); experiment: killing
T15 peptide: GVYDGECHSV

[16] = target: T16, MAGE-B2 peptide, E7D peptide on HLA-A*02:01 (human); experiment: killing
T16 peptide: GVYDGEDHSV

[17] = target: T17, MAGE-B2 peptide, V2L peptide on HLA-A*02:01 (human); experiment: killing
T17 peptide: GLYDGEEHSV

[18] = target: T18, MAGE-B2 peptide, H8A peptide on HLA-A*02:01 (human); experiment: killing
T18 peptide: GVYDGEEASV

[19] = target: T19, MAGE-B2 peptide, S9I peptide on HLA-A*02:01 (human); experiment: killing
T19 peptide: GVYDGEEHIV

[20] = target: T20, MAGE-B2 peptide, V2I peptide on HLA-A*02:01 (human); experiment: killing
T20 peptide: GIYDGEEHSV

[21] = target: T21, MAGE-B2 peptide, S9T peptide on HLA-A*02:01 (human); experiment: killing
T21 peptide: GVYDGEEHTV

[22] = target: T22, MAGE-B2 peptide, E7Q peptide on HLA-A*02:01 (human); experiment: killing
T22 peptide: GVYDGEQHSV

[23] = target: T23, MAGE-B2 peptide, S9G peptide on HLA-A*02:01 (human); experiment: killing
T23 peptide: GVYDGEEHGV

[24] = target: T24, MAGE-B2 peptide, S9D peptide on HLA-A*02:01 (human); experiment: killing
T24 peptide: GVYDGEEHDV

[25] = target: T25, MAGE-B2 peptide, S9A peptide on HLA-A*02:01 (human); experiment: killing
T25 peptide: GVYDGEEHAV

[26] = target: T26, MAGE-B2 peptide, D4C peptide on HLA-A*02:01 (human); experiment: killing
T26 peptide: GVYCGEEHSV

[27] = target: T27, MAGE-B2 peptide, V10L peptide on HLA-A*02:01 (human); experiment: killing
T27 peptide: GVYDGEEHSL

[28] = target: T28, MAGE-B2 peptide, H8W peptide on HLA-A*02:01 (human); experiment: killing
T28 peptide: GVYDGEEWSV

[29] = target: T29, MAGE-B2 peptide, H8F peptide on HLA-A*02:01 (human); experiment: killing
T29 peptide: GVYDGEEFSV

[30] = target: T30, MAGE-B2 peptide, E7L peptide on HLA-A*02:01 (human); experiment: killing
T30 peptide: GVYDGELHSV

[31] = target: T31, MAGE-B2 peptide, V2T peptide on HLA-A*02:01 (human); experiment: killing
T31 peptide: GTYDGEEHSV

[32] = target: T32, MAGE-B2 peptide, S9Q peptide on HLA-A*02:01 (human); experiment: killing
T32 peptide: GVYDGEEHQV

[33] = target: T33, MAGE-B2 peptide, V10A peptide on HLA-A*02:01 (human); experiment: killing
T33 peptide: GVYDGEEHSA

[34] = target: T34, MAGE-B2 peptide, S9V peptide on HLA-A*02:01 (human); experiment: killing
T34 peptide: GVYDGEEHVV

[35] = target: T35, MAGE-B2 peptide, S9E peptide on HLA-A*02:01 (human); experiment: killing
T35 peptide: GVYDGEEHEV

[36] = target: T36, MAGE-B2 peptide, H8P peptide on HLA-A*02:01 (human); experiment: killing
T36 peptide: GVYDGEEPSV

[37] = target: T37, MAGE-B2 peptide, E7N peptide on HLA-A*02:01 (human); experiment: killing
T37 peptide: GVYDGENHSV

[38] = target: T38, MAGE-B2 peptide, E7H peptide on HLA-A*02:01 (human); experiment: killing
T38 peptide: GVYDGEHHSV

[39] = target: T39, MAGE-B2 peptide, V10I peptide on HLA-A*02:01 (human); experiment: killing
T39 peptide: GVYDGEEHSI

[40] = target: T40, MAGE-B2 peptide, D4P peptide on HLA-A*02:01 (human); experiment: killing
T40 peptide: GVYPGEEHSV

[41] = target: T41, MAGE-B2 peptide, Y3W peptide on HLA-A*02:01 (human); experiment: killing
T41 peptide: GVWDGEEHSV

Measured: binding result

B1: TCR3 (TCR, V domains shown)
Valpha: AQKVTQAQTEISVVEKEDVTLDCVYETRDTTYYLFWYKQPPSGELVFLIRRNSFDEQNEISGRYSWNFQKSTSSFNFTITASQVVDSAVYFCALSVLRMDSSYKLIFGSGTRLLVRP
Vbeta: NAGVTQTPKFRVLKTGQSMTLLCAQDMNHEYMYWYRQDPGMGLRLIHYSVGEGTTAKGEVPDGYNVSRLKKQNFLLGLESAAPSQTSVYFCASSLQGAGQPQHFGDGTRLSIL
not listed: [40] | [41]
recognises: all other assays above

B2: TCR1 (TCR, V domains shown)
Valpha: KQEVTQIPAALSVPEGENLVLNCSFTDSAIYNLQWFRQDPGKGLTSLLLIQSSQREQTSGRLNASLDKSSGRSTLYIAASQPGDSATYLCAAMKTSYDKVIFGPGTSLSVIP
Vbeta: GEEVAQTPKHLVRGEGQKAKLYCAPIKGHSYVFWYQQVLKNEFKFLISFQNENVFDETGMPKERFSAKCLPNSPCSLEIQATKLEDSAVYFCASSQGQGGYGYTFGSGTRLTVV
not listed: [18] | [36]
recognises: all other assays above

B3: TCR2 (TCR, V domains shown)
Valpha: QKEVEQNSGPLSVPEGAIASLNCTYSDRGSQSFFWYRQYSGKSPELIMSIYSNGDKEDGRFTAQLNKASQYVSLLIRDSQPSDSATYLCAVNIPFSNSGGYQKVTFGTGTKLQVIP
Vbeta: NAGVTQTPKFRVLKTGQSMTLLCAQDMNHEYMYWYRQDPGMGLRLIHYSVGEGTTAKGEVPDGYNVSRLKKQNFLLGLESAAPSQTSVYFCASRHPGQYNQPQHFGDGTRLSIL
not listed: [8]
recognises: all other assays above
